Source: US20240043507A1 (RQ BIOTECHNOLOGY, published 2024)

B1: mAb 40 (antibody, V domains shown)
VH: QVQLVESGGGLVQPGGSLRLSCAVSGFTVSRNYMSWVRQAPGKGLEWVSLIYSGGSTFYADSVKGRFTISRDNSKNTLYLQMNSLRAEDTAVYYCARDLFHRSGYHDYWGQGTLVTVSS
VL: not shown
B2: mAb 316 (antibody, V domains shown)
VH: not shown
VL: QAVLTQPPSASGSPGQSVTISCTGTSSDVGGYNYVSWYQQHPGKAPKLMIYEVSKRPSGVPDRFSGSKSGNTASLTVSGLQAEDEADYYCSSYAGSNHWVFGGGTKLTVL
B3: mAb 88 (antibody, V domains shown)
VH: QLQLQESGPGLVKPSQTLSLTCTVSGGSISSGSYNWTWIRQPAGKGLEWIGRIYNSGSTNYNPSLKSRVTISVDTSKNQLSLKVRSVTAADTAVYYCARHCSGGTCYPKYYYGMDVWGQGTTVTVSS
VL: QSALTQPPSVSEAPRQRVTISCSGSSSNIGNNAVNWYQQFPGKAPKLLIYYDDLLPSGVSDRFSGSKSGTSASLAISGVQSEDEADYYCAAWDDSLNVVVFGGGTKLTVL
B4: mAb 253H165L (antibody, V domains shown)
VH: not shown
VL: DIVMTQSPGTLSLSPGERATLSCRASQSVRSSYLAWYQQKPGQAPRLLIYGASRRGTGIPDRFSGSGSGTDFTLTISRLEPEDFAVYYCQQYGSSPWTFGQGTKVEIK
B5: mAb 158 (antibody, V domains shown)
VH: EVQLLESGGDLIQPGGSLRLSCAASGVTVSSNYMSWVRQAPGKGLEWVSIIYPGGSTFYADSVKGRFTISRDNSKNTLYLQMHSLRAEDTAVYYCARDLGSGDMDVWGKGTTVTVSS
VL: DIVMTQSPSFLSASVGDRVTITCRASQGISSYLAWYQQKPGKAPKLLIQAASTLQSGVPSRFSGSGSGTEFTLTISSLQPEDFATYYCQQLNSYRYTFGQGTKVEIK
B6: antibody 40, full-length IgG (antibody, V domains shown)
VH: B1 VH
VL: not shown
notes: also called mAb 40; 40 IgG
B7: antibody 316, full-length IgG (antibody, V domains shown)
VH: not shown
VL: B2 VL
notes: also called mAb 316; 316 IgG
B8: antibody 159, full-length IgG (antibody, V domains shown)
VH: EVQLVESGGGVVQPGRSLRLSCAASGFTFSSYGMHWVRQAPGKGLEWVALISYDGGNRYYADSVKGRFTISRDNSKNTLYLQMNRLRAEDTAMYYCAKDRDDGWDWYYFMDVWGKGTTVTVSS
VL: DIQLTQSPGTLSLSPGERATLSCRASQSISGNYLAWYQHKPGQAPRLLIYGASTRATGIPDRFSGSGSGTDFTLTISRLEPEDFAVYYCQQYGSSYTFGQGTKVEIK
B9: antibody 88, full-length IgG (antibody, V domains shown)
VH: B3 VH
VL: B3 VL
notes: also called mAb 88; 88 IgG
B10: antibody 158, full-length IgG (antibody, V domains shown)
VH: B5 VH
VL: B5 VL
notes: also called mAb 158; 158 IgG

These binders were tested against T1, SARS-CoV-2 spike on whole virus (SARS-CoV-2/human/AUS/VIC01/2020, Victoria) (SARS-CoV-2, UniProt P0DTC2 14-1273) (assay: not given).

Binder	EC50 (read off the curve) [nM]
B1	~0.3
B2	~0.1
B3	~0.2
B4	~0.1
B5	~0.5

Each binder was assayed against T1, SARS-CoV-2 spike on whole virus … (assay: cell-based or functional assay).

Binder	Neutralisation IC50 (FRNT) [mg/L]
B2	0.01
B4	0.003
B5	0.034

What follows are binders tested against T2, SARS-CoV-2 spike protein on authentic virus, strain SARS-CoV-2/human/AUS/VIC01/2020 (Victoria) (SARS-CoV-2, UniProt P0DTC2 14-1273) (assay: cell-based or functional assay).

Binder	Neutralisation IC50 [nM]
B6	0.16
B7	0.08
B8	0.08
B9	0.07
B10	0.13

Biological target: T2, SARS-CoV-2 spike protein on authentic …
Test: cell-based or functional assay
Remark: another data set of the same source

Binder	IC50 (ug/ml), FRNT [µg/mL]
B6	0.026
B7	0.018
B8	0.011
B9	0.033
B10	0.031

The binders below were run against SARS-CoV-2 spike protein on authentic virus, strain B.1.1.7 (SARS-CoV-2, UniProt P0DTC2 14-1273) (assay: cell-based or functional assay).

Binder	IC50 (ug/ml), FRNT [µg/mL]	B.1.1.7/Victoria Ratio of IC50
B6	0.035	
B7	0.024	
B8	0.061	5.71
B9	0.058	
B10	0.254	

What follows are binders tested against T2, SARS-CoV-2 spike protein on authentic … (assay: whole-virus capture ELISA, half-maximal binding).

Binder	Kd [nM]
B6	0.33
B7	0.13
B8	0.19
B9	0.25
B10	0.5

Each binder was assayed against T2, SARS-CoV-2 spike protein on authentic … (assay: calculated from whole-virus ELISA binding and FRNT50).

Binder	% Occupancy [%]
B6	33.3
B7	35.4
B8	30
B9	21.9
B10	20.5
